According to patent publication US20060003330A1, “Streptococcus pneumoniae pbp2x mini-protein and uses thereof” (COMMISSARIAT A L'ENERGIE ATOMIQUE CENTRE NATIONAL DE LA …, priority 2002, published 2006):

Experiment: Solubility of purified mini-PBP2x (concentration without precipitating)
Type: physicochemical
Conditions: purified protein

B1: Mini-PBP2x: Modified recombinant protein derived from PBP2x of β-lactam-sensitive S. pneumoniae strain R6, with deletions in the n-PB domain replaced by Gly linkers (protein, listed as Streptococcus pneumoniae)
chain: GSGAKRGTIYDRNGVPIAEDATSGGPNRSYPNGQFASSFIGGGMESSLNSILAGGGGDGKDVYTTISSPLQSFMETQMDAFQEKVKGKYMTATLVSAKTGEILATTQRPTFDADTKEGITEDFVWRDILYQSNYEPGSTMKVMMLAAAIDNNTFPGGEVFNSSELKIADATIRDWDVNEGLTGGRTMTFSQGFAHSSNVGMTLLEQKMGDATWLDYLNRFKFGVPTRFGLTDEYAGQLPADNIVNIAQSSFGQGISVTQTQMIRAFTAIANDGVMLEPKFISAIYDPNDQTARKSQKEIVGNPVSKDAASLTRTNMVLVGTDPVYGTMYNHSTGKPTVTVPGQNVALKSGTAQIADEKNGGYLVGLTDYIFSAVSMSPAENPDFILYVTVQQPEHYSGIQLGEFANPILERASAMKDSLNLQTTAKALEQVSQQSPYPMPSVKDISPGDLAEELRRNLVQPIVVGTGTKIKNSSAEEGKNLAPNQQVLILSDKAEEVPDMYGWTKETAETLAKWLNIELEFQGSGSTVQKQDVRANTAIKDIKKITLTLGD
solubility (can be concentrated without precipitating): ≥ 15 mg/mL
